Laboratory results taken from article PMC5940811, “The lactose operon from Lactobacillus casei is involved in the transport and metabolism of the human milk oligosaccharide core-2 N-acetyllactosamine” (Scientific Reports, 2018).

Substrate: O=[N+]([O-])c1ccccc1O[C@@H]1O[C@H](COP(=O)(O)O)[C@H](O)[C@H](O)[C@H]1O
Test: purified protein
Format: biochemical, Lacticaseibacillus casei
Conditions: activity assay in 100 mM Tris-HCl pH 7.0, 37 °C, kinetics as in cited earlier work

B1: phospho-β-galactosidase LacG; 6x(His)LacG (Lacticaseibacillus casei BL23) (protein)
chain: MSKQLPQDFVMGGATAAYQVEGATKEDGKGRVLWDDFLDKQGRFKPDPAADFYHRYDEDLALAEKYGHQVIRVSIAWSRIFPDGAGEVEPRGVAFYHKLFADCAAHHIEPFVTLHHFDTPERLHEAGDWLSQEMLDDFVAYAKFCFEEFSEVKYWITINEPTSMAVQQYTSGTFPPAESGRFDKTFQAEHNQMVAHARIVNLYKSMQLGGQIGIVHALQTVYPYSDSAVDHHAAELQDALENRLYLDGTLAGEYHQETLALVKEILDANHQPMFQSTPQEMKAIDEAAHQLDFVGVNNYFSKWLRAYHGKSETIHNGDGTKGSSVARLQGVGEEKLPDGIETTDWDWSIYPRGMYDILMRIHNDYPLVPVTYVTENGIGLKESLPENATPDTVIEDPKRIDYVKKYLSAMADAIHDGANVKGYFIWSLQDQFSWTNGYSKRYGLFFVDFPTQNRYIKQSAEWFKSVSETHIIPD
notes: full coding region in pQE80 (BamHI/PstI), 6xHis tag (N-terminal by vector), E. coli BE50 host, purified; 55 kDa, calculated tagged mass 55,305 Da
  Km: 3000 µM
